B1: M0036-F02: Fab that binds human MMP-14; DNA LV SEQ ID NO: 32, HV SEQ ID NO: 33 (antibody, V domains shown)
VL: QYELTQPPSLSVSPGQTASITCSGEKLGEKFASWYQRRPGQSPLLIIYQDNKRPSGIPERFSGSNSGNTAALTITGTQAMDDADYYCQAWESTTAVFGGGTKLTVL
VH: EVQLLESGGGLVQPGGSLRLSCAASGFTFSRYTMGWVRQAPGKGLEWVSRIYSSGGNTVYADSVKGRFTISRDNSKNTLYLQMNSLRAEDTATYYCARTRRDGYNPFDYWGQGTLVTVSS
modifications: Synthetically generated oligonucleotide
B2: M0035-F02: Fab that binds human MMP-14; DNA LV SEQ ID NO: 28, HV SEQ ID NO: 29 (antibody, V domains shown)
VH: EVQLLESGGGLVQPGGSLRLSCAASGFTFSFYRMEWVRQAPGKGLEWVSSIVPSGGFTRYADSVKGRFTISRDNSKNTLYLQMNSLRAEDTAVYYCARFHVLRYFDWFGNTQDTDAFDIWGQGTLVTVSS
VL: QDIQMTQSPATLSLSPGERATLSCRASQSVSNYLAWYQQKPGQAPRLLIYDASNRATGIPARFSGSGSGTDFTLTISSLEPEDFAVYYCQQRSNWPLTFGGGTKVEIK
modifications: Synthetically generated oligonucleotide
B3: M0038-D06: Fab that binds human MMP-14; DNA LV SEQ ID NO: 54, HV SEQ ID NO: 55 (antibody, V domains shown)
VL: B2 VL with N32S, G101Q, K104R, V105L
VH: EVQLLESGGGLVQPGGSLRLSCAASGFTFSWYYMGWVRQAPGKGLEWVSYIGSSGGMTGYADSVKGRFTISRDNSKNTLYLQMNSLRAEDTATYYCAMVGFLPTVDYWGQGTLVTVSS
modifications: Synthetically generated oligonucleotide
B4: M0036-D02: Fab that binds human MMP-14; DNA LV SEQ ID NO: 30, HV SEQ ID NO: 31 (antibody, V domains shown)
VL: B2 VL with R19K, S29T, S31Y, S53F, S93G, L97R, G101Q
VH: EVQLLESGGGLVQPGGSLRLSCAASGFTFSFYKMTWVRQAPGKGLEWVSGIYPSGGRTVYADSVKGRFTISRDNSKNTLYLQMNSLRAEDTAMYYCARGPHYYDSPGAFDIWGQGTMVTVSS
modifications: Synthetically generated oligonucleotide
B5: M0037-C03: Fab that binds human MMP-14; DNA LV SEQ ID NO: 40, HV SEQ ID NO: 41 (antibody, V domains shown)
VL: QDIQMTQSPSSVSASVGDRVTITCRASQGISSWLAWYQQKPGKAPKLLIYAASSLQSGVPSRFSGSGSGTDFTLTISSLQPEDFATYYCQQANSFPFVTFGQGTKLEIK
VH: EVQLLESGGGLVQPGGSLRLSCAASGFTFSMYLMIWVRQAPGKGLEWVSVISSSGGQTKYADSVKGRFTISRDNSKNTLYLQMNSLRAEDTAVYYCARTDLTGYSAGAFDIWGQGTMVTVSS
modifications: Synthetically generated oligonucleotide
B6: M0038-E05: Fab that binds human MMP-14; DNA LV SEQ ID NO: 56, HV SEQ ID NO: 57 (antibody, V domains shown)
VL: QDIQMTQSPSSVSASVGDRVTITCRASQHISNWLAWYQQKPGEAPKLLISAASSLQSGVPSRFSGSGSGTDFTLTISSLQPEDFATYYCQQSYSTPLTFGGGTKVEIK
VH: EVQLLESGGGLVQPGGSLRLSCAASGFTFSPYHMTWVRQAPGKGLEWVSSISSSGGHTEYADSVKGRFTISRDNSKNTLYLQMNSLRAEDTAVYYCATAWAGFTFNVWGQGTMVTVSS
modifications: Synthetically generated oligonucleotide
B7: M0038-B06: Fab that binds human MMP-14; DNA LV SEQ ID NO: 48, HV SEQ ID NO: 49 (antibody, V domains shown)
VL: QDIQMTQSPSSLSASVGDRVTITCRASQSISSYLNWYQQKPGKAPKLLIYAASSLQSGVPSRFRGSGSGTDFSLTISSLQPEDFATYYCQQTYSGLPTFGGGTVVEIK
VH: EVQLLESGGGLVQPGGSLRLSCAASGFTFSSYVMGWVRQAPGKGLEWVSVISPSGGWTTYADSVKGRFTISRDNSKNTLYLQMNSLRAEDTATYYCASRGVVTNLDYWGQGTLVTVSS
modifications: Synthetically generated oligonucleotide
B8: M0037-A08: Fab that binds human MMP-14; DNA LV SEQ ID NO: 36, HV SEQ ID NO: 37 (antibody, V domains shown)
VL: QDIQMTQSPSSVSASVGDRVTITCRASQGVSSYLAWYQQKPGKAPKLLIYGASTLQNGVPSRFSGSGSGTDFTLTISSLQPEDFATYHCQQVHSFPPTFGQGTKVEIK
VH: EVQLLESGGGLVQPGGSLRLSCAASGFTFSHYMMMWVRQAPGKGLEWVSGISSSGGRTGYADSVKGRFTISRDNSKNTLYLQMNSLRAEDTAVYYCASFGNSGSYSWRAFDIWGQGTTVTVSS
modifications: Synthetically generated oligonucleotide
B9: M0038-C05: Fab that binds human MMP-14; DNA LV SEQ ID NO: 50, HV SEQ ID NO: 51 (antibody, V domains shown)
VL: QDIQMTQSPSSLSASVGDRVTITCRASQSISSYLNWYQQKPGKAPKLLIYAASSLQSGVPSRFSGSGSGTDFTLTISRLEPEDFAVYYCQQYGSSPTFGQGTKVEIK
VH: EVQLLESGGGLVQPGGSLRLSCAASGFTFSSYIMVWVRQAPGKGLEWVSVIYPSGGPTYYADSVKGRFTISRDNSKNTLYLQMNSLRAEDTAVYYCARDPRLERFYFDYWGQGTLVTVSS
modifications: Synthetically generated oligonucleotide
B10: M0030-A04: Fab that binds human MMP-14; DNA LV SEQ ID NO: 6, HV SEQ ID NO: 7 (antibody, V domains shown)
VH: EVQLLESGGGLVQPGGSLRLSCAASGFTFSVYEMNWVRQAPGKGLEWVSSIYSSGGRTDYADSVKGRFTISRDNSKNTLYLQMNSLRAEDTAVYYCAREAHYYDSSGPPDYWGQGTLVTVSS
VL: QSELTQPPSASGTPGQRVTISCSGSSSNIGINFVTWYQQLPGTAPKLLIYTNNQRPSGVPDRFSSSKSGASASLAISGLQSEDEAAYYCAAWDDNLNGPVFGGGTKLTVL
modifications: Synthetically generated oligonucleotide
B11: M0037-B10: Fab that binds human MMP-14; DNA LV SEQ ID NO: 38, HV SEQ ID NO: 39 (antibody, V domains shown)
VH: EVQLLESGGGLVQPGGSLRLSCAASGFTFSVYYMGWVRQAPGKGLEWVSYIGSSGGWTEYADSVKGRFTISRDNSKNTLYLQMNSLRAEDTAVYYCARDLSAVAGLGGAFDIWGQGTMVTVSS
VL: QDIQMTQSPSSLSASVGDRVAITCRASQSIDTYLNWYQQKPGKAPKLLIYAASKLEDGVPSRFSGSGTGTDFTLTIRSLQPEDFASYFCQQSYSSPGITFGPGTKVEIK
B12: M0037-H09: Fab that binds human MMP-14; DNA LV SEQ ID NO: 46, HV SEQ ID NO: 47 (antibody, V domains shown)
VL: QDIQMTQSPLSLPVTPGEPASISCRSSQSLLHGNGNNYLDWYLQKPGQSPQLLIYLGSNRASGVPDRFSGSGSGTDFTLKISSVEAEDVGVYYCMQGLQTPHTFGQGTQLEIK
VH: EVQLLESGGGLVQPGGSLRLSCAASGFTFSRYWMDWVRQAPGKGLEWVSSIRSSGGMTGYADSVKGRFTISRDNSKNTLYLQMNSLRAEDTAVYYCARHRTGRGAFDIWGQGTTVTVSS
modifications: Synthetically generated oligonucleotide

From patent US8106168B2, “Metalloproteinase binding proteins” (Dyax Corp., priority 2005, dated 2012) come the findings set out here.

Substitutions are numbered along the chain they refer to.

The target in this experiment is MMP-14 (Homo sapiens, UniProt P50281). Kind of experiment: Selection and phage ELISA screening of anti-MMP-14 Fabs. In kind it is binding. The note with it: Fab from FAB310 phage display library. The protocol:
Strategy I: A 100-fold excess of the FAB310 library (e.g., an amount of the library that should contain 100 copies of each library member) was depleted of streptavidin-binding antibodies by incubating the library with 200 μL of streptavidin beads for 1 hour at room temperature (RT) with rotation. 500 nM of biotinylated MMP-14 was coupled to streptavidin beads by incubation with 100 μL of streptavidin beads. The MMP-14 beads were then incubated with the streptavidin-depleted library for 1 hour at RT with rotation. The beads were then rinsed three times with 2% MTRIS/0.1% Tween, transferred to a fresh tube and washed an additional three times with 2% MTRIS/0.1% Tween, and transferred to a fresh tube and washed a final time with Round 1 TRIS buffer (50 mM TRIS; 50 mM CaCl2; 150 mM NaCl, pH 7.5).
MMP-14 binding antibodies were eluted from the beads by re-suspension in 1 mL 2% MTRIS containing 2.5 μM TIMP-2 and incubation for 1 hour at RT with rotation. The beads were then washed three times with 2% MTRIS/0.1% Tween, transferred to a fresh tube and washed three times with TRIS/0.1% Tween, and transferred to a fresh tube and washed a final time with TRIS. 1 mL output was used for infection of 9 mL TG1 bacteria (grown to OD600=0.5). The beads were further eluted by suspension in 1 mL 100 mM TEA for 10 minutes. The supernatant was neutralized with 500 μl TRIS/HCl pH 7.5. 1 mL of the second elution was used for infection of 9 mL TG1 bacteria (grown to OD600=0.5).
Two additional rounds of selection were carried out under the same conditions as the first round, except that the streptavidin beads were loaded with 100 nM biotinylated MMP-14 and the number of washes were doubled (6 times with 2% MTRIS/0.1% Tween, 6 times with TRIS/0.1% Tween and 2 times with TRIS), and Round 2/3 Tris buffer (50 mM TRIS; 5 mM CaCl2; 150 mM NaCl pH=7.5) was used for incubation and wash.
TIMP-2 was coupled to carboxylic beads, then complexed with a combination of biotinylated MMP-14 (500 nM each). The complexed beads were incubated with a 100 fold excess of FAB310 library that had been previously depleted by incubation with streptavidin beads and carboxylic beads. Elution/washing was carried out as for Strategy I.
Two additional rounds of selection were carried out, essentially as described for Strategy I, except that only 100 nM of each of MMP-14 were used in the bead complexes.
384-well plates were coated with biotinylated BSA (2 μg/ml in 50 mM TRIS; 5 mM CaCl2; 150 mM NaCl, pH 7.5), then washed 3 times with 50 mM TRIS; 5 mM CaCl2; 150 mM NaCl, pH 7.5; 0.1% Tween. Streptavidin was captured on the coated plates by incubation with 10 μg/mL streptavidin in 50 mM TRIS; 5 mM CaCl2; 150 mM NaCl pH 7.5; 0.5% Gelatin, followed by a wash with 50 mM TRIS; 5 mM CaCl2; 150 mM NaCl pH=7.5; 0.1% Tween. On the day the assay was to be performed, biotinylated MMP-14 (1 μg/ml) was captured in 50 mM TRIS; 5 mM CaCl2; 150 mM NaCl, pH 7.5.
95 clones were picked from each of Round 2 and Round 3 of each selection strategy, producing 12 masterplates. ELISA was run on the MiniTrak-5 deck according to SOP.
Consider B1, for which the “bind to human MMP-14” value is “bind to human MMP-14”.
Turning to B2, the “bind to human MMP-14” value was “bind to human MMP-14”.
With B3 the entry was “bind to human MMP-14”; with B4, “bind to human MMP-14”; with B5, “bind to human MMP-14”.
B6: the “bind to human MMP-14” value is given as “bind to human MMP-14”.
The same measure for B7: “bind to human MMP-14”; for B8: “bind to human MMP-14”; for B9: “bind to human MMP-14”.
Consider B10, for which the “bind to human MMP-14” value is reported as “bind to human MMP-14”.
The same measure for B11: “bind to human MMP-14”.
The same measure for B12: “bind to human MMP-14”.
